Measured values reported in US20250115663A1 (CELLDEX THERAPEUTICS, published 2025).
Changes are numbered by the printed parent chain. One block for each binder: values may come before it.

What was measured:
Test in all cases: ELISA, kappa-sCD40-Flag fusion captured on anti-Flag, anti-human IgG Fc-HRP
[1] = molecular target: T1, kappa-sCD40-Flag fusion protein, fragment amino acids 1-94 (human, UniProt P25942 21-114)
T1 construct: also called sCD40aa 1-94; not shown: N-terminal human kappa light chain; C-terminal Flag tag

[2] = molecular target: T2, kappa-sCD40-Flag fusion protein, fragment amino acids 84-173 (human, UniProt P25942 104-193)
T2 construct: not shown: N-terminal human kappa light chain; C-terminal Flag tag
T2 sequence (P25942 104-193): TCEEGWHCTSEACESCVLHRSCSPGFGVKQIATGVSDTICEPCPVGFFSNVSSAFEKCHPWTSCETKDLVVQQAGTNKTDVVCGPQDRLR

[3] = molecular target: T3, kappa-sCD40(1-94)-Flag point mutant F34L (human, UniProt P25942 21-114)
T3 construct: not shown: N-terminal human kappa light chain; C-terminal Flag tag
T3 chain: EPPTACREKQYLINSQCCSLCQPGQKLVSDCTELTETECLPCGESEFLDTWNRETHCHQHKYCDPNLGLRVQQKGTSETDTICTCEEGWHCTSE

[4] = molecular target: T4, kappa-sCD40(1-94)-Flag mutant fragment D (multiple mutations of residues 33-36) (human, UniProt P25942 21-114)
T4 construct: The text says only multiple mutations of residues 33-36 (human to mouse differences); that mutant D carries exactly these is inferred; also called D (33-36); not shown: N-terminal human kappa light chain; C-terminal Flag tag
T4 chain: T3 chain with E33A, T35E, E36K

[5] = molecular target: T5, kappa-sCD40-Flag fusion protein, full length ECD amino acid residues 1-173 (human, UniProt P25942 21-193)
T5 construct: also called full length sCD40; not shown: N-terminal human kappa light chain; C-terminal Flag tag

[6] = molecular target: T6, kappa-sCD40(1-94)-Flag mutant fragment A (multiple mutations of residues 1-5) (human, UniProt P25942 26-114)
T6 construct: The text says only multiple mutations of residues 1-5 (human to mouse differences); that mutant A carries exactly these is inferred; also called A (1-5); not shown: N-terminal human kappa light chain; C-terminal Flag tag

[7] = molecular target: T7, kappa-sCD40(1-94)-Flag point mutant T35E (human, UniProt P25942 21-114)
T7 construct: not shown: N-terminal human kappa light chain; C-terminal Flag tag
T7 chain: T3 chain with L34F, T35E

[8] = molecular target: T8, kappa-sCD40(1-94)-Flag point mutant E33A (human, UniProt P25942 21-114)
T8 construct: not shown: N-terminal human kappa light chain; C-terminal Flag tag
T8 chain: T3 chain with E33A, L34F

[9] = molecular target: T9, kappa-sCD40(1-94)-Flag point mutant T4V (human, UniProt P25942 21-114)
T9 construct: not shown: N-terminal human kappa light chain; C-terminal Flag tag
T9 chain: T3 chain with T4V, L34F

[10] = molecular target: T10, kappa-sCD40(1-94)-Flag point mutant P3S (human, UniProt P25942 21-114)
T10 construct: not shown: N-terminal human kappa light chain; C-terminal Flag tag
T10 chain: T3 chain with P3S, L34F

[11] = molecular target: T11, kappa-sCD40-Flag fusion protein, fragment amino acids 36-130 (human, UniProt P25942 56-150)
T11 construct: not shown: N-terminal human kappa light chain; C-terminal Flag tag
T11 sequence (P25942 56-150): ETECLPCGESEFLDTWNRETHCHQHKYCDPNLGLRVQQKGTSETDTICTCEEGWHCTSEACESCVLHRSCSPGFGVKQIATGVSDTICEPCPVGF

[12] = molecular target: T12, kappa-sCD40(1-94)-Flag point mutant E1G (human, UniProt P25942 22-114)
T12 construct: not shown: N-terminal human kappa light chain; C-terminal Flag tag

[13] = molecular target: T13, kappa-sCD40(1-94)-Flag point mutant E36K (human, UniProt P25942 21-114)
T13 construct: not shown: N-terminal human kappa light chain; C-terminal Flag tag
T13 chain: T3 chain with L34F, E36K

[14] = molecular target: T14, kappa-sCD40(1-94)-Flag point mutant A5T (human, UniProt P25942 21-114)
T14 construct: not shown: N-terminal human kappa light chain; C-terminal Flag tag
T14 chain: T3 chain with A5T, L34F

OD [1]: 2.15 OD 450-650
OD [2]: 0.024 OD 450-650
OD [3]: 1.84 OD 450-650
OD [4]: 0.233 OD 450-650
OD [5]: 2.36 OD 450-650
OD [6]: 0.25 OD 450-650
OD [7]: 2.1 OD 450-650
OD [8]: 1.7 OD 450-650
OD [9]: 2.21 OD 450-650
OD [10]: 2.01 OD 450-650
OD [11]: 0.029 OD 450-650
OD [12]: 2.01 OD 450-650
OD [13]: 1.69 OD 450-650
OD [14]: 1.51 OD 450-650
B1: anti-CD40 human monoclonal antibody 3C3 (antibody, human IgG2, kappa, V domains shown)
VH: QVQLVESGGGVVQPGRSLRLSCAGSGFIFSRYGMYWVRQAPGKGLEWVAVIWYDGSYKYYADSVKGRFTISRDNSKNTLYLQMNSLRAEDTAVYYCARESPWYYFDYWGQGTLVTVSS
VL: DIQMTQSPSSLSASVGDRVTITCRASQGISNYLAWYQQKPGKVPKLLIYAASTLQSGVPSRFSGSGSGTDFTLTISSLQPEDVATYYCQKYKSAPFTFGPGTKVDIKR
notes: Human IgG2, C-terminal lysine removed; also called anti-CD40 mAb 3C3; CD40 antibody 3C3

OD [1]: 2.17 OD 450-650
OD [2]: 0.038 OD 450-650
OD [3]: 1.19 OD 450-650
OD [4]: 0.042 OD 450-650
OD [5]: 2.21 OD 450-650
OD [6]: 2.14 OD 450-650
OD [7]: 2.13 OD 450-650
OD [8]: 0.074 OD 450-650
OD [9]: 2.21 OD 450-650
OD [10]: 2.19 OD 450-650
OD [11]: 0.048 OD 450-650
OD [12]: 2.08 OD 450-650
OD [13]: 1.93 OD 450-650
OD [14]: 2.2 OD 450-650
B2: anti-CD40 human monoclonal antibody 3G5 (antibody, human IgG2, V domains shown)
VH: QVQLVESGGGVVQPGKSLRLSCAASGFTFSSNGIHWVRQAPGKGLEWVAVIWSDGSNKFYADSVKGRFTISRDNSKNTLYLQMNSLRAEDTAVYYCARASGSGSYYNFFDYWGQGTLVTVSS
VL: EIVMTQSPATLSVSPGERATLSCRASQSVRSNLAWYQQKPGQAPRLLIYGASTRATGIPARFSGSGSGTEFTLTINSLQSEDFAVYYCQQHNKWITFGQGTRLEIK
notes: Human IgG2
